# US6518061
# Legend:
# [1] = biological target: IL-13 receptor (IL-13R) on human tumor cells (human); assay: cell-based or functional assay
# [2] = biological target: IL-13 receptor (IL-13R) on human tumor cells (human); assay: ^125I-hIL-13 displacement by unlabeled hIL-13 on SNB-19 glioma cells, LIGAND/Scatchard analysis
# [3] = biological target: IL-13 receptor (IL-13R) on human tumor cells (human); assay: ^125I-hIL-13 displacement by unlabeled hIL-13 on U-251 MG glioma cells, LIGAND/Scatchard analysis
# [4] = biological target: IL-13 receptor (IL-13R) on human tumor cells (human); assay: ^125I-hIL-13 displacement by unlabeled hIL-13 on U-373 MG glioma cells, LIGAND/Scatchard analysis
# [5] = biological target: IL-13 receptor (IL-13R) on human tumor cells (human); assay: ^125I-hIL-13 displacement by unlabeled hIL-13 on A-172 glioma cells, LIGAND/Scatchard analysis
# [6] = biological target: IL-13 receptor (IL-13R) on human tumor cells (human); assay: ^125I-IL-13 displacement by unlabeled IL-13 on MA-RCC cells, LIGAND/Scatchard analysis
# [7] = biological target: IL-13 receptor (IL-13R) on human tumor cells (human); assay: radioligand (0.64 nM) binding to PM-RCC cells, 4 C, 2 h
# [8] = biological target: IL-13 receptor (IL-13R) on human tumor cells (human); assay: ^125I-IL-13 displacement by unlabeled IL-13 on WS-RCC cells, LIGAND/Scatchard analysis
# [9] = biological target: IL-13 receptor (IL-13R) on human tumor cells (human); assay: ^125I-IL-13 displacement by unlabeled IL-13 on HL-RCC cells, LIGAND/Scatchard analysis
# [10] = biological target: IL-13 receptor (IL-13R) on human tumor cells (human); assay: displacement of ^125I-IL-13 from WS-RCC and HL-RCC cells by excess unlabeled IL-13
# [11] = biological target: IL-13 receptor (IL-13R) on human tumor cells (human); assay: ^125I-IL-13 displacement by unlabeled IL-13 on PM-RCC cells, LIGAND/Scatchard analysis
# [12] = biological target: IL-13 receptor (IL-13R) on human tumor cells (human); assay: displacement of [^125I]-IL-13 from HL-RCC cells
# [13] = biological target: IL-13 receptor (IL-13R) on human tumor cells (human); assay: ^125I-hIL-13 displacement by unlabeled hIL-13 on T-98G glioma cells, LIGAND/Scatchard analysis
# Sequence of IL-13 receptor (IL-13R) on human tumor cells (human) (Q14627 whole entry): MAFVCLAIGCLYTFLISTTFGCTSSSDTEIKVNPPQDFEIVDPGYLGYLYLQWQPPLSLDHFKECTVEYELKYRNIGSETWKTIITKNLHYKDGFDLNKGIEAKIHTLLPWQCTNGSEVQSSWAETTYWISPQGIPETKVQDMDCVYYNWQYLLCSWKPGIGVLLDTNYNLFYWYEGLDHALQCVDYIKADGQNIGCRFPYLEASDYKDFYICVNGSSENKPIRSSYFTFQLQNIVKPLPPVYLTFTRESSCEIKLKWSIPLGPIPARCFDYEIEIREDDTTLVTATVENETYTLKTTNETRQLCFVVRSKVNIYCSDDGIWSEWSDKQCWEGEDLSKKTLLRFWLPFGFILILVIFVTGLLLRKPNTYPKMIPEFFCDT
Kd [2],Kd [3],Kd [4],Kd [5],Kd [6],cpm specifically bound [7],Kd [8],Kd [9],% displacement of total binding [10],Kd [11],IC50 [12],Kd [13],Substance,"IC50, cytotoxicity on several glioma cell lines [1]"
,,,,,,,,,,,,hIL-13-PE4E (from UniProt P35225 33-146; P11439 26-638),< 0.1 ng/mL
1.4 nM,2.1 nM,1.8 nM,1.6 nM,0.128 nM,182000 cpm,0.247 nM,3.1 nM,85%,0.394 nM,20 nM,1 nM,recombinant human interleukin 13 (IL-13) (from UniProt P35225 33-146) (ligand),
